According to patent publication US20250034264A1, “REGULATING T CELL IMMUNE RESPONSE THROUGH IGF-I RECEPTOR (IGF-1R)” (The Regents of the University of Michigan, priority 2021, published 2025):

Key:
Format in all cases: cell-based, human
[1] = tested on: CD34+ fibrocytes; assay: MHC II, CD80, CD86, PD-L1 expression in cultured fibrocytes (RT-qPCR, flow cytometry); details: rhSlit2 50 ng/ml, 5 to 7 d
Excerpt: Fibrocyte and T cell isolation and cultivation. Peripheral blood mononuclear cells (PBMCs) were obtained from the venous circulation of clinic patients with GD, TAO or from healthy donors after obtaining informed consent. PBMCs were also obtained from Red Cross donor plasmapheresis filters. They were isolated by Ficoll-Histopaque (Sigma-Aldrich, St. Louis, MO) density gradient centrifugation. Fibrocytes were cultivated as described (Bucala, R, et al., (1994) Mol Med 1, 71-81, incorporated herein by reference in its entirety) except that culture substrata remained uncoated with fibronectin, as previously described (Douglas, R. S., et al. (2010) The Journal of clinical endocrinology and metabolism 95, 430-438). Isolated PBMCs (1×10^6-1×107) were inoculated in six-well plates covered with DMEM containing 10% FBS and incubated in 10-14 days. Adherent monolayers (<5% of the starting population) were washed with PBS and detached using accutase (Millipore) treatment, or mechanical scraping following accutase treatment. Culture purity was routinely confirmed by FACS analysis to be >90% fibrocytes by confirming the CD31^−CD45^+CD34^+CXCR4^+Col I^+TSFR^high phenotype.
Invariably, a small population of tightly adherent T cells were found in the fibrocyte cultures, consistent with the previous findings. Culture viability was routinely verified to be >90%. CD4^+ T cells were enriched using the CD4 isolation cocktail (Cat #0.130-096-533, Miltenyi Biotec, San Diego, CA) followed by negative selection using a magnetic column (Cat #0.130-042-401) according to manufacturer's protocol. Fibrocytes and isolated T cells were cultured and remained untreated or were incubated with human IgG isotype control (5 μg/ml) or teprotumumab (50 μg/mL) for 7 to 9 days. Single cell suspensions were stained with anti-human CD4, CD3, CD34, MHC-2, CD80, CD86, and PD-L1 (BD Biosciences) for 30 min, rinsed and fixed with CytoPerm/CytoFix (BD). They were then stained with anti-human INFγ and IL-17A for 20 min, rinsed, and subjected to the flow cytometry analysis. Gated CD34^+CXCR4^+ fibrocytes and CD4^+CD3^+ T cells were analyzed using quadrant settings based on negative isotype staining.
In vitro studies of CD34^+ fibrocytes and T cells PBMC and GD-OF monolayers were treated in vitro with human IgG isotype control (5 μg/ml), teprotumumab (50 μg/mL), H7 (5 μg/mL), linsitinib (1 μM), bTSH (5 mIU/mL), M22 (1 μg/mL), or IGF-1 (10 nM) for the intervals indicted in the figure legends in a 37° C., 5% CO2, humidified incubator until confluent. Brefeldin A (0.66 μl/ml), (Golgi Stop™, BD Biosciences), phorbol 12-myristate 13-acetate (PMA) (50 ng/ml) and ionomycin (1 μg/mL) were added for 5 h. Cells were rinsed with flow cytometry buffer (1×PBS, 0.5% BSA, 0.1% sodium azide) and stained with the relevant monoclonal antibodies.
(§1) Real-time PCR Confluent fibrocyte and GD-OF cultures were incubated with bTSH (5 mIU/mL), teprotumumab (50 μg/mL) or linsitinib (1 μM) for the time intervals indicated, washed with PBS and RNA was extracted with the Aurum Total RNA Mini Kit (cat. #732-6820, Bio-Rad, Hercules, CA). Cellular RNA (2 μg) was reverse transcribed using QuantiTect Reverse Transcription kit (cat. #205314, Qiagen (Germantown, MD) and real-time PCR was performed using an Applied Biosystems instrument with QuantiTect SYBR Green PCR kit (cat. no. 204143; Qiagen, Frederick, MD). Primer sequences were as follows.

[2] = tested on: fibrocytes; assay: IL-10, icIL-1RA, sIL-1RA expression (PCR, ELISA)
Experimental: FIGS. 11A-11F are graphs showing teprotumumab attenuates bTSH induced IL-10 while enhancing icIL-1RA and sIL-1RA expression in fibrocytes and GD-OF. Fibrocyte cultures were treated with teprotumumab (50 μg/ml), rhSlit2 (50 ng/ml) or human Isotype IgG for 7-9 d, with bTSH (5 mIU/mL) for final 6 h. RNA was extracted and reverse transcribed. Isolated cDNA was subjected to quantitative real-time PCR for IL-10 (FIGS. 11A and 11B), icIL-1RA (FIGS. 11C and 11D). Media and cellular proteins were collected and subjected to specific ELISAs for icIL-1RA and sIL-1RA (FIGS. 11E, 11F, 11G, and 11H). PCR values were normalized to their respective GAPDH levels. icIL-1RA and sIL-1RA protein levels were normalized to cellular protein levels. Data are expressed as the mean±SD of three independent determinations. Experiments were repeated three times. **, p<0.01; ***. P<0.001.
IL-12, IL-23, IL-10, HA and BAFF ELISAs. Confluent cultures were treated with nothing or teprotumumab (50 μg/mL) for 5 d, without or with bTSH (5 mU/mL) for the intervals indicated or 72 h. Media and rinsed cell layers were homogenized in 0.1M NaCl and assayed for HA content using an ELISA kit (K-1200) from Echelon Biosciences Inc. (Salt Lake City, UT) according to manufacturer's instructions. A BAFF specific ELISA, purchased from R & D systems, was used in accordance with the manufacturer's instructions.
as §1

[3] = tested on: fibrocytes and GD-OF; assay: BAFF expression and induction by bTSH; details: teprotumumab 50 μg/ml or rhSlit2 50 ng/ml
Experimental: FIGS. 12A-12F are graphs showing the effect of bTSH, teprotumumab, and Slit2 on B-cell activating factor (BAFF) expression in fibrocytes and GD-OF. In FIGS. 12A and 12B, cultures were treated for the graded intervals indicated along the abscissas with bTSH (5 mIU/mL). Cellular RNA was harvested and subjected to reverse transcription by RT-PCR (FIG. 12A). Values were normalized to their respective GAPDH levels Medium was assayed for BAFF levels with an ELISA (FIG. 12B). Values were normalized to respective monolayer protein content. Data are expressed as mean f SD of triplicate determinations; *, p<0.05; **, p<0.01; ***, p<0.001. In FIGS. 12C-12F, bTSH, teprotumumab (50 μg/ml) or recombinant human Slit2 (rhSlit2) (50 ng/ml) were added to culture media for the times indicated and analyzed for BAFF mRNA levels as in FIG. 12A. In FIGS. 12F, parental GD-OF strains were sorted into pure CD34^+ and CD34^− subsets. Subsets were then cultured for 48 h, the final 6 h in the absence or presence of bTSH. Data were expressed as mean f SD of triplicate independent determinations from a single experiment representative of three conducted. *, p<0.05; **, p<0.01
IL-12, IL-23, IL-10, HA and BAFF ELISAs. Confluent cultures were treated with nothing or teprotumumab (50 μg/mL) for 5 d, without or with bTSH (5 mU/mL) for the intervals indicated or 72 h. […]

[4] = teprotumumab 50 μg/ml or rhSlit2 50 ng/ml, 7-9 d

B1: rhSlit2: recombinant human Slit2, a neural axon repellent generated by CD34− OF (protein, UniProt O94813 31-1529, looked up)
Slit homolog 2 protein: QCSCSGSTVDCHGLALRSVPRNIPRNTERLDLNGNNITRITKTDFAGLRHLRVLQLMENKISTIERGAFQDLKELERLRLNRNHLQLFPELLFLGTAKLYRLDLSENQIQAIPRKAFRGAVDIKNLQLDYNQISCIEDGAFRALRDLEVLTLNNNNITRLSVASFNHMPKLRTFRLHSNNLYCDCHLAWLSDWLRQRPRVGLYTQCMGPSHLRGHNVAEVQKREFVCSGHQSFMAPSCSVLHCPAACTCSNNIVDCRGKGLTEIPTNLPETITEIRLEQNTIKVIPPGAFSPYKKLRRIDLSNNQISELAPDAFQGLRSLNSLVLYGNKITELPKSLFEGLFSLQLLLLNANKINCLRVDAFQDLHNLNLLSLYDNKLQTIAKGTFSPLRAIQTMHLAQNPFICDCHLKWLADYLHTNPIETSGARCTSPRRLANKRIGQIKSKKFRCSAKEQYFIPGTEDYRSKLSGDCFADLACPEKCRCEGTTVDCSNQKLNKIPEHIPQYTAELRLNNNEFTVLEATGIFKKLPQLRKINFSNNKITDIEEGAFEGASGVNEILLTSNRLENVQHKMFKGLESLKTLMLRSNRITCVGNDSFIGLSSVRLLSLYDNQITTVAPGAFDTLHSLSTLNLLANPFNCNCYLAWLGEWLRKKRIVTGNPRCQKPYFLKEIPIQDVAIQDFTCDDGNDDNSCSPLSRCPTECTCLDTVVRCSNKGLKVLPKGIPRDVTELYLDGNQFTLVPKELSNYKHLTLIDLSNNRISTLSNQSFSNMTQLLTLILSYNRLRCIPPRTFDGLKSLRLLSLHGNDISVVPEGAFNDLSALSHLAIGANPLYCDCNMQWLSDWVKSEYKEPGIARCAGPGEMADKLLLTTPSKKFTCQGPVDVNILAKCNPCLSNPCKNDGTCNSDPVDFYRCTCPYGFKGQDCDVPIHACISNPCKHGGTCHLKEGEEDGFWCICADGFEGENCEVNVDDCEDNDCENNSTCVDGINNYTCLCPPEYTGELCEEKLDFCAQDLNPCQHDSKCILTPKGFKCDCTPGYVGEHCDIDFDDCQDNKCKNGAHCTDAVNGYTCICPEGYSGLFCEFSPPMVLPRTSPCDNFDCQNGAQCIVRINEPICQCLPGYQGEKCEKLVSVNFINKESYLQIPSAKVRPQTNITLQIATDEDSGILLYKGDKDHIAVELYRGRVRASYDTGSHPASAIYSVETINDGNFHIVELLALDQSLSLSVDGGNPKIITNLSKQSTLNFDSPLYVGGMPGKSNVASLRQAPGQNGTSFHGCIRNLYINSELQDFQKVPMQTGILPGCEPCHKKVCAHGTCQPSSQAGFTCECQEGWMGPLCDQRTNDPCLGNKCVHGTCLPINAFSYSCKCLEGHGGVLCDEEEDLFNPCQAIKCKHGKCRLSGLGQPYCECSSGYTGDSCDREISCRGERIRDYYQKQQGYAACQTTKKVSRLECRGGCAGGQCCGPLRSKRRKYSFECTDGSSFVDEVEKVVKCGCTRCVS
MHC II and B7 expression [1]: repressing
sIL-1RA expression (protein) ([2]; ELISA, fibrocytes): attenuated
IL-10 mRNA, basal and bTSH-provoked expression [2, 4]: downregulated
basal and bTSH-dependent icIL-1RA and sIL-1RA mRNA levels [2, 4]: upregulated
bTSH induction of BAFF [3]: similar
